Results from patent US10428140B2, “Anti-EphA4 antibody” (EISAI R&D MANAGEMENT CO., LTD., priority 2015, dated 2019).

T1: human EphA6 (Homo sapiens, UniProt Q9UF33)
T1 construct: a protein of the extracellular region of each human Eph receptor fused with the SEAP protein and the His tag; made in house; host or cells: Expi293F cells (culture supernatant)
T1 sequence (Q9UF33 23-550 limits assumed): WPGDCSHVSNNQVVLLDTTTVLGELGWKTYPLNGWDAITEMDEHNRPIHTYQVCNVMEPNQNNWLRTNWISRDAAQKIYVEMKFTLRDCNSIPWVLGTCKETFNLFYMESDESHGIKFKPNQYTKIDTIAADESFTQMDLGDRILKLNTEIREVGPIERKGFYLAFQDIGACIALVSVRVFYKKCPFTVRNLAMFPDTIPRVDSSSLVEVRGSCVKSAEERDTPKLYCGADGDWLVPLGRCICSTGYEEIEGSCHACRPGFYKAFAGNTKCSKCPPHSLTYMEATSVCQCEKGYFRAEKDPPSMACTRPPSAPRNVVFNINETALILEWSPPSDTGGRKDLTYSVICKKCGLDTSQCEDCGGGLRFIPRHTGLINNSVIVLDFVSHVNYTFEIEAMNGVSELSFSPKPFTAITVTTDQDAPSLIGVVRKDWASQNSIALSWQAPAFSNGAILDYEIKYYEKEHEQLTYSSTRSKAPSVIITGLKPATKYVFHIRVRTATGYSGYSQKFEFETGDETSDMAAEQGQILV

T2: human EphA1 (Homo sapiens, UniProt P21709)
T2 construct: a protein of the extracellular region of each human Eph receptor fused with the SEAP protein and the His tag; made in house; host or cells: Expi293F cells (culture supernatant)
T2 sequence (P21709 26-547 limits assumed): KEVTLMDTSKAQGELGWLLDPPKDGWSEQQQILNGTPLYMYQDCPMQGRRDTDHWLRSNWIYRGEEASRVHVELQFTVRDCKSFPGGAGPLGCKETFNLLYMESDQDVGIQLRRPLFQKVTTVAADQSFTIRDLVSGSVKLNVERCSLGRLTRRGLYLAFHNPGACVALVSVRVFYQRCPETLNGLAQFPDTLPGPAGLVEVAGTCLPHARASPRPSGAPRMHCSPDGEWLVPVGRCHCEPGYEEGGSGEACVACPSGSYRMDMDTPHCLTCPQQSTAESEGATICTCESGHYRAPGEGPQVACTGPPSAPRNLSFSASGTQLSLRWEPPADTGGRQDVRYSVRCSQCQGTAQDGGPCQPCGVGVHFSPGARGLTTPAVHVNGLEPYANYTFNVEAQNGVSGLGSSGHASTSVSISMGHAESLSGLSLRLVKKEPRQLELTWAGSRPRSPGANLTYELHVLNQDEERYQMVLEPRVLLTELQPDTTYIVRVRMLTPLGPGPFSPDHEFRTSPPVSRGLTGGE

T3: human EphB1 (Homo sapiens, UniProt P54762)
T3 construct: a protein of the extracellular region of each human Eph receptor fused with the SEAP protein and the His tag; made in house; host or cells: Expi293F cells (culture supernatant)
T3 sequence (P54762 18-540 limits assumed): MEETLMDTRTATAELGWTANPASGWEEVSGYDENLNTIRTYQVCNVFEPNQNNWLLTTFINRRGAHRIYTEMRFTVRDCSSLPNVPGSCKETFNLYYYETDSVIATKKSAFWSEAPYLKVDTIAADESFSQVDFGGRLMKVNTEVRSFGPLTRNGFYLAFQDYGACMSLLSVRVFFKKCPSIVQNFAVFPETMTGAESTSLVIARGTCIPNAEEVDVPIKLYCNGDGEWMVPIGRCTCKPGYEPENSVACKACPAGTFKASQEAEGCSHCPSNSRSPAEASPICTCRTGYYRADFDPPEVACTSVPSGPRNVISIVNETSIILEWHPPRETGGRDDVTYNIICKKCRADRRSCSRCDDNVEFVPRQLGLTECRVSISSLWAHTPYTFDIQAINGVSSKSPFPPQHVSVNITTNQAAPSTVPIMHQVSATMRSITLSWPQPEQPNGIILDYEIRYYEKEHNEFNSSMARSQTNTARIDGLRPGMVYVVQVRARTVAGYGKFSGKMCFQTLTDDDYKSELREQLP


How the values were obtained:
Assay in all cases: Selectivity ELISA of humanized antibodies for human Eph receptor
Type in all cases: binding
Settings in all cases: coated protein 1 nM
[1] = target: T1, human EphA6
Procedure, shortened: (§1)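 Extracellular domains of human Eph receptors fused to SEAP-His were expressed in Expi293F cells for 5 days and captured from supernatant (1 nM final) on anti-His-coated plates. Humanized anti-EphA4 antibodies were incubated 1 h at room temperature, then HRP anti-IgG secondary, TMB substrate, and absorbance at 450 nm.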

[2] = target: T2, human EphA1
Procedure, shortened: as §1

[3] = target: T3, human EphB1
Procedure, shortened: as §1

Molecule | hEphA6-SEAP-: absorbance at 450 nm, percentage with respect to hEphA4-SEAP-His as 100% [1] [%] | hEphA1-SEAP-: absorbance at 450 nm, percentage with respect to hEphA4-SEAP-His as 100% [2] [%] | hEphB1-SEAP-: absorbance at 450 nm, percentage with respect to hEphA4-SEAP-His as 100% [3] [%]
89 (antibody, V domains shown, constant regions without entry; synthetic humanized antibody light chain variable region sequence; synthetic humanized antibody heavy chain variable region sequence) VL: DIQMTQSPSSLSASVGDRVTITCRASENIYRNLAWYQQKPGKAPQLLLYAATNLADGVPSRFSGSGSGTDYTLTISSLQPEDFATYYCQHFWGTPWTFGQGTKVEIK VH: QIQLVQSGSELKKPGASVKVSCKASGYTFTDYSMHWVRQAPGQGLKWMGWINTETGEPTYAQGFTGRFVFSLDTSVSTAYLQISSLKAEDTAVYYCARIPLYYYGSRYWYFDVWGQGTTVTVSS | 8.4 | 5.5 | 5.7
92 (antibody, V domains shown, constant regions without entry; synthetic humanized antibody light chain variable region sequence; synthetic humanized antibody heavy chain variable region sequence) VL: DIQMTQSPSSLSASVGDRVTITCRASENIYRNLAWYQQKPGKAPQLLLYAATNLADGVPSRFSGSGSGTDYTLTISSLQPEDFATYYCQHFWGTPWTFGQGTKVEIK VH: QIQLVQSGSELKKPGASVKVSCKASGYTFTDYSMHWVRQAPGQGLKWMGWINTETGEPTYADDFKGRFVFSLDTSVSTAYLQISSLKAEDTAVYYCARIPLYYYGSRYWYFDVWGQGTTVTVSS | 9.6 | 7.0 | 6.9
94 (antibody, V domains shown, constant regions without entry; synthetic humanized antibody light chain variable region sequence; synthetic humanized antibody heavy chain variable region sequence) VL: EIVMTQSPATLSVSPGERATLSCRASENIYRNLAWYQQKPGQSPRLLIYAATNLADGIPARFSGSGSGTEYTLTISSLQSEDFAVYYCQHFWGTPWTFGQGTKVEIK VH: QVQLVQSGSELKKPGASVKVSCKASGYTFTDYSMHWVRQAPGQGLKWMGWINTETGEPTYAQGFTGRFVFSLDTSVSTAYLQISSLKAEDTAVYYCARIPLYYYGSRYWYFDVWGQGTTVTVSS | 8.6 | 6.5 | 6.7
91 (antibody, V domains shown, constant regions without entry; synthetic humanized antibody light chain variable region sequence; synthetic humanized antibody heavy chain variable region sequence) VL: DIQMTQSPSSLSASVGDRVTITCRASENIYRNLAWYQQKPGKAPQLLLYAATNLADGVPSRFSGSGSGTDYTLTISSLQPEDFATYYCQHFWGTPWTFGQGTKVEIK VH: QVQLVQSGSELKKPGASVKVSCKASGYTFTDYSMHWVRQAPGQGLKWMGWINTETGEPTYADDFKGRFVFSLDTSVSTAYLQISSLKAEDTAVYYCARIPLYYYGSRYWYFDVWGQGTTVTVSS | 8.8 | 5.8 | 6.6
71 (antibody, V domains shown, synthetic humanized antibody heavy chain variable region sequence; synthetic humanized antibody light chain variable region sequence) VH: QIQLVQSGSELKKPGASVKVSCKASGYTFTDYSMHWVRQAPGQGLKWMGWINTETGEPTYAQGFTGRFVFSLDTSVSTAYLQISSLKAEDTAVYYCARIPLYYYGSRYWYFDVWGQGTTVTVSS VL: EIVMTQSPATLSVSPGERATLSCRASENIYRNLAWYQQKPGQSPRLLIYAATNLADGIPARFSGSGSGTEYTLTISSLQSEDFAVYYCQHFWGTPWTFGQGTKVEIK | 9.2 | 5.6 | 5.4

Further lines, results first:

hEphA6-SEAP-: absorbance at 450 nm, percentage with respect to hEphA4-SEAP-His as 100% [1] [%] | hEphA1-SEAP-: absorbance at 450 nm, percentage with respect to hEphA4-SEAP-His as 100% [2] [%] | hEphB1-SEAP-: absorbance at 450 nm, percentage with respect to hEphA4-SEAP-His as 100% [3] [%] | Molecule
7.5 | 5.8 | 6.1 | 88 (antibody, V domains shown, constant regions without entry; synthetic humanized antibody light chain variable region sequence; synthetic humanized antibody heavy chain variable region sequence) VL: DIQMTQSPSSLSASVGDRVTITCRASENIYRNLAWYQQKPGKAPQLLLYAATNLADGVPSRFSGSGSGTDYTLTISSLQPEDFATYYCQHFWGTPWTFGQGTKVEIK VH: QVQLVQSGSELKKPGASVKVSCKASGYTFTDYSMHWVRQAPGQGLKWMGWINTETGEPTYAQGFTGRFVFSLDTSVSTAYLQISSLKAEDTAVYYCARIPLYYYGSRYWYFDVWGQGTTVTVSS
7.6 | 5.1 | 4.9 | 90 (antibody, V domains shown, constant regions without entry; synthetic humanized antibody light chain variable region sequence; synthetic humanized antibody heavy chain variable region sequence) VL: DIQMTQSPSSLSASVGDRVTITCRASENIYRNLAWYQQKPGKAPQLLLYAATNLADGVPSRFSGSGSGTDYTLTISSLQPEDFATYYCQHFWGTPWTFGQGTKVEIK VH: QVQLVQSGSELKKPGASVKVSCKASGYTFTDYSMHWVRQAPGQGLEWMGWINTETGEPTYADDFKGRFVFSLDTSVSTAYLQISSLKAEDTAVYYCARIPLYYYGSRYWYFDVWGQGTTVTVSS
7.1 | 5.0 | 5.0 | 93 (antibody, V domains shown, constant regions without entry; synthetic humanized antibody light chain variable region sequence; synthetic humanized antibody heavy chain variable region sequence) VL: EIVMTQSPATLSVSPGERATLSCRASENIYRNLAWYQQKPGQSPRLLIYAATNLADGIPARFSGSGSGTEYTLTISSLQSEDFAVYYCQHFWGTPWTFGQGTKVEIK VH: QVQLVQSGSELKKPGASVKVSCKASGYTFTDYSMHWVRQAPGQGLEWMGWINTETGEPTYAQGFTGRFVFSLDTSVSTAYLQISSLKAEDTAVYYCARIPLYYYGSRYWYFDVWGQGTTVTVSS
